One block for each molecule: values may come before it.
Columns and labels:
[1] = target: type X collagen (Homo sapiens) (UniProt Q03692); conditions: cited from earlier work
[2] = target: mouse type IV collagen (mouse); experiment: SPR; BIAcore X; collagens immobilised on CM5 chips by amide coupling, FKBP22 injected; 20 °C; HBS-P (10 mM Hepes pH 7.4, 150 mM NaCl, 0.005% Surfactant P20) with 1 mM CaCl2; flow 10 µL/min; steady-state affinity model for type IV collagen - WT FKBP22, Langmuir-binding model for type X collagen - M48K FKBP22
[3] = target: T1, human recombinant type X collagen (human, UniProt Q03692 19-680); experiment: as above; conditions: both partners purified
T1 construct: type X collagen, human, recombinant; source: 293 cells, purified as described previously
T1 sequence (Q03692 19-680): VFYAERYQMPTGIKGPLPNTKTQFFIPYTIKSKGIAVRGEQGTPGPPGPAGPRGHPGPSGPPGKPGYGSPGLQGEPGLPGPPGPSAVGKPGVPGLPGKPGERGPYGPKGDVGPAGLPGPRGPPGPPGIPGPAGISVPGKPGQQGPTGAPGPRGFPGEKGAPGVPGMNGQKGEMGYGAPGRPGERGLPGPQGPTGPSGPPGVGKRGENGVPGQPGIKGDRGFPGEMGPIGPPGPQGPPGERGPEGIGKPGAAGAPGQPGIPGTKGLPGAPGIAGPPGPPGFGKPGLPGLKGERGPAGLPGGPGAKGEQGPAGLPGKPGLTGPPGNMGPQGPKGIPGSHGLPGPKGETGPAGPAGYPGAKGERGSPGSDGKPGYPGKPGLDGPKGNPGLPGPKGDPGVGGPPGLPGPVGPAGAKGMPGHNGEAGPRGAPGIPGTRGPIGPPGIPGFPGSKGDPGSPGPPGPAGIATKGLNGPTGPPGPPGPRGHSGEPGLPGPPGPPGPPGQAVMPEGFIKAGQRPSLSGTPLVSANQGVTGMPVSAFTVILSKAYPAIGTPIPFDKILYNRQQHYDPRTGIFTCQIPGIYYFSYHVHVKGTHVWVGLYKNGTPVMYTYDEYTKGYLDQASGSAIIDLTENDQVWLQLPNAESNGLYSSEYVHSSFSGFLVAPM

Sequence of type X collagen (Homo sapiens) (Q03692 19-680): as above

Molecule: FKBP22 (from UniProt Q9NWM8)
Kd [1]: 43 µM

Kd [2]: 310 µM
B1: recombinant human wild type FKBP22 (FK506 Binding Protein 22 kDa) (enzyme)
chain: LIPEPEVKIEVLQKPFICHRKTKGGDLMLVHYEGYLEKDGSLFHSTHKHNNGQPIWFTLGILEALKGWDQGLKGMCVGEKRKLIIPPALGYGKEGKGKIPPESTLIFNIDLLEIRNGPRSHESFQEMDLNDDWKLSKDEVKAYLKKEFEKHGAVVNESHHDALVEDIFDKEDEDKDGFISAREFTYKHDEL

Kd [3]: 5.3 ± 4 µM
B2: recombinant human M48K FKBP22 (Met48Lys) (enzyme)
chain: LIPEPEVKIEVLQKPFICHRKTKGGDLKLVHYEGYLEKDGSLFHSTHKHNNGQPIWFTLGILEALKGWDQGLKGMCVGEKRKLIIPPALGYGKEGKGKIPPESTLIFNIDLLEIRNGPRSHESFQEMDLNDDWKLSKDEVKAYLKKEFEKHGAVVNESHHDALVEDIFDKEDEDKDGFISAREFTYKHDEL
notes: The mutation was found in a patient with kEDS; PDB 4MSP is the WT structure (parent); also called mutant FKBP22; source: E. coli BL21 (DE3), solubilised with 2 M urea, purified (Co2+-chelating column, enterokinase cleavage, Phenyl column)
